Results from paper PMC5853512, “Arabidopsis MKK10-MPK6 mediates red-light-regulated opening of seedling cotyledons through phosphorylation of PIF3” (Journal of Experimental Botany, 2017).

Molecular target: T1, GST-PIF3 (Arabidopsis thaliana, UniProt O80536 1-524)
T1 construct: coding region with an NdeI site before the first ATG and an XhoI site at its 3' end, NdeI/XhoI fragment cloned into pGEX4T-2; source: E. coli BL21, purified (Glutathione Sepharose 4B)
T1 sequence (looked up): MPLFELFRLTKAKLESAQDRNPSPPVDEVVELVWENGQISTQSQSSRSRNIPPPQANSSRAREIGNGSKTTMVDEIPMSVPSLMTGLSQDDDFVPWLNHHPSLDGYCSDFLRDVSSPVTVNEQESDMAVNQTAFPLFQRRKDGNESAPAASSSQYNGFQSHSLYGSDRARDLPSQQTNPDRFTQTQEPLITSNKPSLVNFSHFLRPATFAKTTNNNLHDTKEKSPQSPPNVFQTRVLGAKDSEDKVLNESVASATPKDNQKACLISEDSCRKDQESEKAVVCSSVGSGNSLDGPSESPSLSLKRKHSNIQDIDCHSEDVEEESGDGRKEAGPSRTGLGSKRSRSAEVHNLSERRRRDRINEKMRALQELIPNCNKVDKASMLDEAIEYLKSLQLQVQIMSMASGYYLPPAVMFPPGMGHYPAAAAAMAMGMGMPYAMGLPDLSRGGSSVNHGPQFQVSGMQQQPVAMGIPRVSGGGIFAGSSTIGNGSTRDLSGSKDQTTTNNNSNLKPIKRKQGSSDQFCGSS
Assay: pull-down; GST or GST-PIF3 bound to Glutathione Sepharose 4B beads, incubated with His-MPK6 in 50 mM Tris-HCl pH 7.5, 100 mM NaCl, 0.02% Triton X-100 at 4 °C for 2 h; immunoblot with anti-GST and anti-His
Settings: both partners purified

binding result: binds
B1: His-MPK6 (enzyme, Arabidopsis thaliana, UniProt Q39026 1-395, looked up)
chain: MDGGSGQPAADTEMTEAPGGFPAAAPSPQMPGIENIPATLSHGGRFIQYNIFGNIFEVTAKYKPPIMPIGKGAYGIVCSAMNSETNESVAIKKIANAFDNKIDAKRTLREIKLLRHMDHENIVAIRDIIPPPLRNAFNDVYIAYELMDTDLHQIIRSNQALSEEHCQYFLYQILRGLKYIHSANVLHRDLKPSNLLLNANCDLKICDFGLARVTSESDFMTEYVVTRWYRAPELLLNSSDYTAAIDVWSVGCIFMELMDRKPLFPGRDHVHQLRLLMELIGTPSEEELEFLNENAKRYIRQLPPYPRQSITDKFPTVHPLAIDLIEKMLTFDPRRRITVLDALAHPYLNSLHDISDEPECTIPFNFDFENHALSEEQMKELIYREALAFNPEYQQ
notes: coding region amplified from seedling cDNA with an NdeI site before the first ATG, NdeI/SalI fragment cloned into pET28a(+); The NdeI site of pET28a(+) would put the His tag at the N-terminus (surmised); source: E. coli BL21, purified (Ni2+-chelating Sepharose Fast Flow)
